Seven molecules from patent US20210318322A1 (Janssen / Centocor, published 2021) can be followed below.

Experiment [1] addresses T1, cynomolgus VISTA extracellular domain (cynomolgus, UniProt A0A7N9IB00 33-194).
T1 construct: extracellular domain; also called cyno VISTA ECD; SB0361 (cyno (cynomolgus))
T1 sequence: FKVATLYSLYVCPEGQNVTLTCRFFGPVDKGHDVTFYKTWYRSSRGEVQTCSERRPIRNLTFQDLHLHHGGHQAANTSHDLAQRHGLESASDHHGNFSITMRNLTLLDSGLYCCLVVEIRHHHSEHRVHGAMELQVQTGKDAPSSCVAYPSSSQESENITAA
As to the kind of experiment: SPR ProteOn.

Experiment [2] concerns the target T2, human VISTA expressed on cells (human, UniProt Q9H7M9 33-295).
T2 sequence: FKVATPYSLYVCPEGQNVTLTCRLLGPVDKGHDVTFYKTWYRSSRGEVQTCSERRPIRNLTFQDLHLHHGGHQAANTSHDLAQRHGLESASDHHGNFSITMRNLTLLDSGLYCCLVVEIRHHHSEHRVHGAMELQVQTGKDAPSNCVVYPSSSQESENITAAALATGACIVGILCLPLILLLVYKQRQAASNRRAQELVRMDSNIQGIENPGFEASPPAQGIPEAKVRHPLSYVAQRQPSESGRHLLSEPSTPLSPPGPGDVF
As to the kind of experiment: cell-based or functional assay.

In experiment [3] the target is T2, human VISTA expressed on cells. The experiment is described as follows: cell-based or functional assay. The source holds these as a separate data set.
Experiment [4] has the same target. The experiment is described as follows: cell-based or functional assay. This is another data set of the same source.
Experiment [5] addresses T3, human VISTA extracellular domain (human, UniProt Q9H7M9 33-194).
T3 construct: also called human VISTA ECD; SB0361 (human)
The experiment is described as follows: SPR ProteOn.

Experiment [6] concerns the target T1, cynomolgus VISTA extracellular domain. The experiment is described as follows: SPR ProteOn. The source holds these as a separate data set.

Where two headings read alike, the source gives them in different places.

B1: VSTB112 (antibody, human IgG1, kappa)
heavy: not shown
light: DIQMTQSPSSLSASVGDRVTITCRASQSIDTRLNWYQQKPGKAPKLLIYSASSLQSGVPSRFSGSGSGTDFTLTISSLQPEDFATYYCQQSAYNPITFGQGTKVEIKRTVAAPSVFIFPPSDEQLKSGTASVVCLLNNFYPREAKVQWKVDNALQSGNSQESVTEQDSKDSTYSLSSTLTLSKADYEKHKVYACEVTHQGLSSPVTKSFNRGEC
notes: also called S2; INX Code 2
Regarding B1, in experiment [1], the Kd (usually a measure of binding affinity in units of concentration) worked out at 86.6 pM.

B2: VSTB116 (antibody, human IgG1, kappa)
heavy: not shown
light: DIQMTQSPSSLSASVGDRVTITCRASQSINTNLNWYQQKPGKAPKLLIYAASSLQSGVPSRFSGSGSGTDFTLTISSLQPEDFATYYCQQARDTPITFGQGTKVEIKRTVAAPSVFIFPPSDEQLKSGTASVVCLLNNFYPREAKVQWKVDNALQSGNSQESVTEQDSKDSTYSLSSTLTLSKADYEKHKVYACEVTHQGLSSPVTKSFNRGEC
notes: also called S5; INX Code 5
B2: in experiment [2], the “EC50 IFN-gamma production, MLR” value was 0.69 µg/mL and the “EC50 proliferation, MLR” value was 0.17 µg/mL. Besides, in experiment [3], the “IC50, CPM in the SEB assay” value was -1.44 log10 of antibody concentration and the “IC50, IFN-gamma in the SEB assay” value is -0.35 log10 of antibody concentration. Further, in experiment [4], the “IC50, CPM in the MLR” value was -0.78 log10 of antibody concentration and the “IC50, IFN-gamma in the MLR” value is -0.16 log10 of antibody concentration. In addition, in experiment [1], the Kd came to 137 pM; the off-rate constant (koff) (in general, the rate constant with which the complex falls apart) came to 0.000117 s⁻¹; the kon (usually the rate constant with which the complex forms) is 851000 M⁻¹ s⁻¹. In experiment [5], this molecule showed a dissociation constant (Kd) of 213 pM, a koff of 0.000267 s⁻¹ and an association rate constant (kon) of 1.25e+06 M⁻¹ s⁻¹.

B3: VSTB174 (antibody, human IgG1, kappa)
heavy: not shown
light: DIQMTQSPSSLSASVGDRVTITCRASQSIDTRLNWYQQKPGKAPKLLIYSASSLQSGVPSRFSGSGSGTDFTLTISSLQPEDFATYYCQQSAYNPITFGQGTKVEIKRTVAAPSVFIFPPSDEQLKSGTASVVCLLNNFYPREAKVQWKVDNALQSGNSQESVTEQDSKDSTYSLSSTLTLSKADYEKHKVYACEVTHQGLSSPVTKSFNRGEC
Turning to B3, binding in experiment [6] was characterised by a dissociation constant (Kd) of 86.6 pM.

B4: VSTB95 (antibody, human IgG1, kappa, V domains shown)
VH: EVQLVESGGGLVQPGGSLRLSCAASGFTFRNYGMSWVRQAPGKGLEWVASIISGGSYTYYPDSVKGRFTISRDNAKNSLYLQMNSLRAEDTAVYYCARIYDHDGDYYAMDYWGQGTTVTVSS
VL: DIVMTQSPLSLPVTPGEPASISCRSSQSIVHSNGNTYLEWYLQKPGQSPQLLIYKVSNRFSGVPDRFSGSGSGTDFTLKISRVEAEDVGVYYCFQGSHVPWTFGQGTKLEIKR
notes: also called S16; INX Code 16
Consider B4, for which, in experiment [2], the “EC50 IFN-gamma production, MLR” value amounted to 1.67 µg/mL and the “EC50 proliferation, MLR” value came to 0.29 µg/mL. In experiment [3], the “IC50, CPM in the SEB assay” value was -1.12 log10 of antibody concentration and the “IC50, IFN-gamma in the SEB assay” value was 0.05 log10 of antibody concentration. Also, in experiment [4], the “IC50, CPM in the MLR” value is -0.54 log10 of antibody concentration and the “IC50, IFN-gamma in the MLR” value was 0.22 log10 of antibody concentration. In experiment [1], the dissociation constant (Kd) is 192 pM, the off-rate (koff) is 8.53e-05 s⁻¹ and the kon was determined as 443000 M⁻¹ s⁻¹. In experiment [5], this molecule gave a Kd of 126 pM, a dissociation rate constant (koff) of 6.99e-05 s⁻¹ and a kon of 554000 M⁻¹ s⁻¹.

B5: VSTB53 (antibody, human IgG1, kappa, V domains shown)
VH: QVQLVQSGAEVKKPGASVKVSCKASGYTFTHYTIHWVRQAPGQGLEWMGYIIPSSGYSEYNQKFKDRVTMTRDTSTSTVYMELSSLRSEDTAVYYCARGAYDDYYDYYAMDYWGQGTLVTVSS
VL: DIVMTQSPLSLPVTPGEPASISCRSSQTIVHSNGNTYLEWYLQKPGQSPQLLIYKVSNRFSGVPDRFSGSGSGTDFTLKISRVEAEDVGVYYCFQASHVPWTFGQGTKLEIKR
notes: also called S43; INX Code 43
For the molecule B5, in experiment [2], the “EC50 IFN-gamma production, MLR” value is 1.88 µg/mL and the “EC50 proliferation, MLR” value was 0.47 µg/mL. Moreover, in experiment [3], the “IC50, CPM in the SEB assay” value was -1.06 log10 of antibody concentration and the “IC50, IFN-gamma in the SEB assay” value is -1.05 log10 of antibody concentration. Besides, in experiment [4], the “IC50, CPM in the MLR” value was -0.33 log10 of antibody concentration and the “IC50, IFN-gamma in the MLR” value was 0.27 log10 of antibody concentration. In experiment [1], the Kd is 52.8 pM, the koff worked out at 6.22e-05 s⁻¹ and the kon stood at 1.18e+06 M⁻¹ s⁻¹. In experiment [5], this molecule gave a Kd of 26.4 pM, a koff of 3.3e-05 s⁻¹ and a kon of 1.25e+06 M⁻¹ s⁻¹.

B6: VSTB50 (antibody, human IgG1, kappa, V domains shown)
VH: QVQLVQSGSELKKPGASVKVSCKASGYTFTNYGLNWVRQAPGQGLEWMGWINPYTGEPTYADDFKGRFVFSLDTSVSTAYLQICSLKAEDTAVYYCAREGYGNYIFPYWGQGTLVTVSS
VL: DIVMTQTPLSLSVTPGQPASISCRASESVDTYANSLMHWYLQKPGQPPQLLIYRASNLESGVPDRFSGSGSGTDFTLKISRVEAEDVGVYYCQQTNEDPRTFGQGTKLEIKR
notes: also called S41; INX Code 41
On to B6, for which, in experiment [2], the “EC50 IFN-gamma production, MLR” value was 1.14 µg/mL and the “EC50 proliferation, MLR” value turned out to be 0.77 µg/mL. In addition, in experiment [3], the “IC50, CPM in the SEB assay” value was -0.74 log10 of antibody concentration and the “IC50, IFN-gamma in the SEB assay” value is 1.69 log10 of antibody concentration. In experiment [4], the “IC50, CPM in the MLR” value is -0.12 log10 of antibody concentration and the “IC50, IFN-gamma in the MLR” value was 0.06 log10 of antibody concentration. Moreover, in experiment [1], the Kd was found to be 310 pM, the koff was 0.000219 s⁻¹ and the on-rate (kon) worked out at 708000 M⁻¹ s⁻¹. In experiment [5], this molecule came in with a Kd of 632 pM, a koff of 0.000305 s⁻¹ and a kon of 482000 M⁻¹ s⁻¹.

B7: VSTB60 (antibody, human IgG1, kappa, V domains shown)
VH: QVQLVQSGSELKKPGASVKVSCKASGYTFTNYGMTWVRQAPGQGLEWMGWINTYTGESTYADDFKGRFVFSLDTSVSTAYLQICSLKAEDTAVYYCARDYYGIYVSAYWGQGTLVTVSS
VL: DIVMTQTPLSLSVTPGQPASISCRASESVDNYANSFMHWYLQKPGQSPQLLIYRASNLESGVPDRFSGSGSGTDFTLKISRVEAEDVGVYYCQQSHEDPYTFGQGTKLEIKR
notes: also called S47; INX Code 47
In the case of B7, in experiment [2], the “EC50 IFN-gamma production, MLR” value is 2.48 µg/mL and the “EC50 proliferation, MLR” value turned out to be 1.04 µg/mL. Moreover, in experiment [4], the “IC50, CPM in the MLR” value was 0.02 log10 of antibody concentration and the “IC50, IFN-gamma in the MLR” value was 0.4 log10 of antibody concentration. In experiment [1], this molecule yielded a Kd of 252 pM, a koff of 0.000143 s⁻¹ and an association rate constant (kon) of 569000 M⁻¹ s⁻¹. In experiment [5], this molecule registered a Kd of 356 pM, a koff of 0.000183 s⁻¹ and a kon of 514000 M⁻¹ s⁻¹.
